What follows are binders tested against T1, recombinant human pIgR (hpIgR) (human, UniProt P01833 19-638, limits assumed) (assay: ELISA, periplasmic VHH, BSA subtracted).
T1 construct: probably the ECD
Protocol: Initial Library Screening: After each panning round showing enrichment, 94 individual clones were expressed and tested in an off-phage initial screen for specific binding to mpIgR or hpIgR (respectively depending on the antigen used). Screening of monoclones in an off-phage format was performed by transforming the phagemid pool into a non-amber-suppressor strain of E. coli and picking random colonies. The VHH proteins were recovered in the periplasmic fraction by performing osmotic shock. Periplasmic fractions containing His-tagged nanobodies were tested for binding to hpIgR or mpIgR. Bound nanobody was detected with a polyclonal anti-alpaca VHH domain antibody. Each clone was also tested for non-specific binding to BSA in parallel. The ELISA values obtained on BSA were subtracted from the ELISA values obtained on the respective pIgR antigen.
Repeat Testing of Positive Hits: The hits identified in the initial screen of the phage pools were re-tested for binding to either hpIgR or mpIgR. Periplasmic fractions were prepared again by performing osmotic shock. Periplasmic fractions containing His-tagged nanobodies were tested for binding to mpIgR. In this assay, bound nanobody was detected with an anti-VHH antibody. Each clone was also tested for non-specific binding to BSA in parallel. The ELISA values obtained on BSA were subtracted from the ELISA values obtained on the respective pIgR antigen.

T1 sequence (P01833 19-638 limits assumed): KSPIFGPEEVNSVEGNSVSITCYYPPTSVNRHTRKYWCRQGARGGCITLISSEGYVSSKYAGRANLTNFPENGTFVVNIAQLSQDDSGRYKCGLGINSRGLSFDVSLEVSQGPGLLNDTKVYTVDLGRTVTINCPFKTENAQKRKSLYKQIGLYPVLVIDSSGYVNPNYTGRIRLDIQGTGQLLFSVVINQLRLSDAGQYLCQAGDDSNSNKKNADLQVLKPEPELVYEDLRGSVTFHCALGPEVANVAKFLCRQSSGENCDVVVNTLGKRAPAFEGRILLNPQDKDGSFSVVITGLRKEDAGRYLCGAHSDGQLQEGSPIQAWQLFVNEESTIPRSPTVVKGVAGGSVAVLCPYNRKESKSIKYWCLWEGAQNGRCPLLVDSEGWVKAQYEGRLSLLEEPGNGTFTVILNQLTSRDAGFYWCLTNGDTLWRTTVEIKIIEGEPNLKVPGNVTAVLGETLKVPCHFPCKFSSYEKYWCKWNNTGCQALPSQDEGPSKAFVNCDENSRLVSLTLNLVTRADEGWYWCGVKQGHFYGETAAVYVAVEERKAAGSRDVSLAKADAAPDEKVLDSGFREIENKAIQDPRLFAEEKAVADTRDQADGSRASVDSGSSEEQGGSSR

ELISA (OD) | Binder
1.94 OD | 01B02R2L His-tagged VHH (VHH) VHH: EVQLVESGGGLVQAGGSLKLACAASGLTFSSYRMGWFRQAPGKEREFVAAIDWNGRGTYYRYYADSVKGRFTISRDNAKNTMCLQMNSLKPEDTAVYYSAIDSRTSIDPRTSGHYRYWGQGTLVTVSS
1.68 OD | 01B01R3 His-tagged VHH (VHH) VHH: QVQLVESGGGLVQAGGSLRLSCAASGRTFSSYAMGWFRQAPGKEREFVAVISWSGGSTYYADSVKGRFTISRDNAKNTVYLQMNSLKPEDTAVYYCASGEQPGSNRPYIPEQPIEFMPTDYPSWYDYWGQGTLVTVSS
2.1 OD | 01F03R2 His-tagged VHH (VHH) VHH: QVQLVESGGGLVQAGGSLRLSCAASGRTFSSYAMGWFRQAPGKEREFVAVISWSGGSTYYADSVKGRFTISRDNAKNTVYLQMNSLKPEDTAVYYCASGEQPGSNRPYIPEQPIEFMPTDYPSWYDYWGQGTQVTVSS
2.19 OD | 03B07R3 His-tagged VHH (VHH) VHH: QVQLVESGGGLVQAGGSLRLSCAASGRTFSSNPMGWFRQAPGKEREFVAAISWSGGGTYYADSVKGRFTISRDNAKNTVTLQMNSLKPEDTAVYYCASRDYSDPISLWVEDREYDYWGQGTLVTVSS
2.29 OD | 03D05R3 His-tagged VHH (VHH) VHH: EVQLVESGGGLVQAGGSLRLSCAASGRTFSSNPMGWFRQAPGKEREFVAAISWSGGGTYYADSVKGRFTISRDNAKNTVTLQMNSLKPEDTAVYYCASRDYSDPISLWVEGREYDYWGQGTLVTVSS
2.07 OD | 01B05R2 His-tagged VHH (VHH) VHH: EVQLVESGGGLVQAGGSLRLSCAASGRSLSFDTYAMGWFRQAPGKEREFVASIDWNGGSTYYADSVKGRFTISRDNARNTVNLRMNSLKPDDTAVYYCAAARYYTSGTYFPANYWGQGTQVTVSS
0.46 OD | 03H05R3 His-tagged VHH (VHH) VHH: QVQLVESGGGLVQAGGSLSLSCAASGRSLSFDTYAMSWFRQAPGKEREFVASIDWNGGSTSYADSMKGRFTISRDNAKNTVNLRIRSLKPDDTAVYFCASARYYIGGTYFPANYWGQGTQVTVSS
1.77 OD | 03C10R3 His-tagged VHH (VHH) VHH: QVQLVESGGGLVQRGGSLRLSCAASGRSLGFDTYAMGWFRQAPGKEREFVASIDWNGGNTYYADSVKGRFTISRDNAKNTVNLRMNSLKPDDTAAYYCAAARYYTSGTYFPANYWGRGTLVTVSS
1.27 OD | 01H05R3 His-tagged VHH (VHH) VHH: QVQLVESGGGLVQAGGSLRLSCAASGRSLGFDTYGMAWFRQAPGKEREFVASIDWNGGSTYYADSMKGRFTISRDNAKNTVNLRMNSLKPDDTAVYYCAAARYYTSSTYFPANYWGQGTQVTVSS
1.82 OD | 03D09R3 His-tagged VHH (VHH) VHH: QVQLVESGGGLVQAGGSLRLSCAASGRTVSSVAMGWFRQAPGKEREFVATISWTGGSTYYADSVKGRFTISRDNAKNTAYLQMNSLKPEDTAVYYCAAGYPADPIALMTLRYEYDYWGQGTLVTVSS
2.11 OD | 01D08R3 His-tagged VHH (VHH) VHH: QVQLVESGGGLVQAGDSLRLSCAASGRTSSLYNMGWFRQAPGQEREFVAAIHWGGGRTYYADSVKGRFTISRDNAKNTVYLQMNSLEPGDTANYYCAARRAPELLDDYKQKPEEIGAYHYWGQGTQVTVSS
2.07 OD | 03H01R3 His-tagged VHH (VHH) VHH: EVQLVESGGGLVQAGGSLRLSCAASGRTSSIYNMGWFRQAPGQEREFVAAIHWGGGRTYYADSVKGRFTISRDNAKNTVYLQMNSLEPGDTANYYCAARRAPELLDDYKQKPEEIGTYHYWGQGTQVTVSS
2.07 OD | 03D02R3 His-tagged VHH (VHH) VHH: EVQLVESGGGLAQAGGSLRLSCTASGTISKIDVMAWYRQTPGNERELVARIFSNDVTHYVDSAKGRFTLSRAQDKNTVDLQMNSLEPDDAAVYYCNAQIWSDMRGRMDTYWGQGTLVTVSS
1.84 OD | 03D01R3 His-tagged VHH (VHH) VHH: EVQLVESGGGLVQPGGSLRLSCAASGFTFRTYYMGWFRQAPGKEREFVGVTRSSDDVTYYADSVKGRFTISRDNAKNTVYLQMSRLKPEDTAVYYCAAKPVPITRYSFPQIGEEYDYWGQGTLVTVSS
1.29 OD | 01C09R3 His-tagged VHH (VHH) VHH: EVQLVESGGGLVQAGGSLRLSCAASGFTFRTYYMGWFRQAPGKEREFVGVTRSSDDVTYYADSVKGRFTISRDNAKNTVYLQMSRLKPEDTAVYYCAAKPVPITRYSFPQIGEEYDYWGQGTLVTVSS
1.13 OD | 02B09R3 His-tagged VHH (VHH) VHH: EVQLVESGGGLVQPGGSLRLSCAASGFTFRTYYMGWFRRAPGKEREFVGVTRSSDDVTYYADSVKGRFTISRDNAKDTVYLQMSRLKPEDTAVYYCAAKPVPITRYSFPQIGEEYDYWGQGTLVTVSS
0.67 OD | 01B07R2L His-tagged VHH (VHH) VHH: EVQLVESGGGLVQAGGSLRLSCAASGRTFSSDAVGWFRQAPGKEREFVAHIHWSGDFTTYYYYGDFVKGRFTISRGTAKNTVYLQMNSLKPEDTAVYYCAAPKGAIGDPRSTREYDYWGQGTLVTVSS
2.27 OD | 03D12R3 His-tagged VHH (VHH) VHH: QVQLVESGGGLVQAGGSLRLSCAASGRTFSSYAMGWFRQAPGKEREFAAVITWNGGSTHYADSVKGRFTISRDNAKNTVYLQMNSLKPEDTAVYYCAADPMNSPYWGQGTQVTVSS
2.16 OD | 01B04R2 His-tagged VHH (VHH) VHH: EVQLVESGGGLVQAGGSLRLSCAASGRTFTSYTMGWFRQAPGKEREFVAAIKWNGGSTYYADSVKGRFTISRDNAKNTVYLQMNSLKPEDTAVYYCAADGDPYFSPTDGIVWHAPHQSEYDYWGQGTLVTVSS
1.92 OD | 03G05R3 His-tagged VHH (VHH) VHH: EVQLVESGGGLVQAGDSLRLSCAASGRALSFNTYAMAWFRQAPGKEREFVASITYNGGSTYYADSVKGRFTVTRDNGKNTVTLRMNSLKPDDTAVYYCASAQYWRSGTSFPANYWGQGTQVTVSS
1.92 OD | 03G07R3 His-tagged VHH (VHH) VHH: EVQLVESGGGLVQAGDSLRLSCAASGRTLSFDTYAMAWFRQAPGKEREFVASIDYNGGSTDYADSVKGRFTVTRDNAKNTVTLRMNSLKPDDTAVYYCASARYYRSGTSFPVNYWGQGTQVTVSS
2.33 OD | 01C04R3 His-tagged VHH (VHH) VHH: QVQLVESGGGLVQAGDSLRLSCAASGRALSFNTYAMAWFRQAPGKEREFVASITYNGGSTYYADSVKGRFTVTRDNGKDTVTLRMNSLKPDDTAVYYCASAQYWRSGTSFPANYWGQGTLVTVSS
1.83 OD | 01F04R3 His-tagged VHH (VHH) VHH: QVQLVESGGGLVQAGDSLRLSCAASGRALSFNTYAMAWFRQAPGKEREFVASITYNGGSTYYADSVRGRFTVTRDSGKNTVTLRMNSLKPDDTAVYYCASAQYWRSGTSFPANYWGQGTLVTVSS
0.5 OD | 01D06R2 His-tagged VHH (VHH) VHH: QVQLVESGGGLVQAGDSLRLSCAASGRTLSFDTYAMAWFRQAPGKEREFVASIDWNGVNTYYADSVKGRFTVTRDNTKNTVTLRMNSLKTDDTAVYYCAAAQYYRSGTSFPANSWGQGTQVTVSS
0.99 OD | 03C05R3 His-tagged VHH (VHH) VHH: EVQLVESGGGLVKAEGSLRLSCVASTSIASINVMGWYRQAPGKERELVARISGGGITHYAESVEGRFTISRDNAKNTVHLQMNGLKPEDTAAYYCKADVFASSGHVTTYWGQGTLVTVSS
2.41 OD | 01D05R2LS His-tagged VHH (VHH) VHH: EVQLVESGGGLVQTGGSLRLSCAASGRTFSPYAMGWFRQAPGKEREFVAAIRWSGATTYKYVGDSVQGRFTISRDAAGNTVYLQMNSVKPEDTAVYYCAADRVPKDISIDPRNPKDWDYWGKGTLVTVSS
1.9 OD | 01B06R2LS His-tagged VHH (VHH) VHH: QVQLVESGGGLVQTGGSLRLSCAASGRTFSPYAMGWFRQAPGKEREFVAAIRWSGATTYKYVGDSVQGRFTISRDAAGNTVYLQMNSVKPEDTAVYYCAADRVPKDISIDPRNPKDWDYWGKGTLVTVSS
1.17 OD | 01H01R2LS His-tagged VHH (VHH) VHH: EVQLVESGGGLVQTGGSLRLSCAASGRTFSPYAMGWFRQAPGKEREFVAAIRWSGATTYKYVGGSVQGRFTISRDAAGNTVYLQMNSVKPEDTAVYYCAADRVPKDISIDPRNPKDWDYWGKGTQVTVSS
1.97 OD | 03F01R3 His-tagged VHH (VHH) VHH: QVQLVESGGGLVQAGESLRLSCAASGDVFDIGTMAWYRQPPGKQRELVASITMGGSTDVADSAKGRFTISRDNAKNTVYLHMDSLKPEDTAVYYCNAQFFWPKRHDYWGQGTQVTVSS
2.12 OD | 01B04R3L His-tagged VHH (VHH) VHH: EVQLVESGGGLVQAGDSLRLSCAASGRTFTTYVMGWFRQAPGKEREFVATIAWSGSTNYKYYADSVKGRFTISRDNAKNTVYLRMNSLKPEDTAVYYCAASTVLTDPRRLNEYANWGQGTLVTVSS

— patent publication US20220112276A1 (Janssen / Centocor, published 2022)
